The text below walks through data of the Immune Epitope Database (IEDB).

One test deals with HLA-A*31:01. Nature of the test: IEDB peptide-MHC binding, purified MHC/competitive/radioactivity; filed as Kd, often an IC50 or EC50 that approximates it; ≥ and ≤ were set here for values at or beyond the usual limits of such assays. As to conditions: source organism: Vaccinia virus WR.
For the sequence MIKMFSQIDR, the dissociation constant (Kd) is 2.43 nM.
The same measure, in the same setting: next, TLITLILSNK: 570 nM; RALKAYFTAK: 38.8 nM.
Still for that read-out and setting: next, VISKIYTLIY: 990 nM; DSMDVLAEK: 988 nM.
As to VALSSLVSK, the Kd amounted to 2040 nM.
On the same count and under the same terms, next, DIEIGNFYIR: 822 nM; SSLRREHIK: 89.7 nM; ETSPGEIKPK: not below 70000 nM.
As for NAISSRVDR, the equilibrium dissociation constant (Kd) was found to be 1280 nM.
Same read-out and setting: next, ESRPFDLIK: 17900 nM; DTSEKYSKGY: not below 70000 nM; ETFKIDAVRY: not below 41300 nM.
In the case of NVHEHINDQK, the Kd is not below 70000 nM.
For STGESSILR, the dissociation constant Kd was 1340 nM.
Still for that read-out and setting: next, QFNFNGHTY: 565 nM; EQLSKYVEK: 506 nM.
The same measure, in the same setting: next, CAVHLIIYY: 4950 nM; VALYRRIQR: 2.27 nM.
Still for that read-out and setting: next, RLGLVLDDYK: 2220 nM; ELRRAAIDR: 18100 nM; KSKQDRSDGY: not below 70000 nM.
For the sequence HINTLIQYR, the Kd turned out to be 6.05 nM.

The target in the next test is HLA-A*03:01. The test is described as above. As to conditions: source organism: Dengue virus 2 Peru/IQT2913/1996.
With TTFITPMLR, the dissociation constant (Kd) turned out to be 13.2 nM.

The same test, now with this note: source organism: Mammarenavirus guanaritoense.
CCNWLDRCR: the dissociation constant (Kd) was not below 78000 nM.

The same test, now with this note: source organism: Mammarenavirus lassaense.
With TCQGSDDIK, the Kd was not below 78000 nM.
Take SHLGPQFCK: the Kd was 699 nM.

Staying with this test, now noted: source organism: Mammarenavirus mopeiaense.
With KCFGNTAIAK, the Kd came to 195 nM.

Staying with this test, now noted: source organism: Mammarenavirus tacaribeense.
For the sequence VCPLGLLLK, the equilibrium dissociation constant (Kd) is 5830 nM.

The same test, now with this note: source organism: SARS coronavirus Tor2.
For PVNQFTGYLK, the Kd was 5330 nM.
Still for that read-out and setting: next, NLLDSYFVVK: 5370 nM.
For SLTVLFDGR, the Kd was found to be 4810 nM.
Regarding GVVREFLTR, the Kd stood at 19000 nM.
As to SFIEDLLFNK, the Kd came to 7950 nM.
On the same count and under the same terms, next, SVFYLYLTFY: 1790 nM; FLLNKEMYLK: 59.5 nM; QTVKPGNFNK: 2730 nM.
On the same count and under the same terms, next, RFQPFQQFGR: 13500 nM.
Regarding TFFSTFKCY, the Kd amounted to 5800 nM.
The same measure, in the same setting: next, FVFPLNSKVK: 164 nM.

Staying with this test, now noted: source organism: Vaccinia virus WR.
With QFIKPVSDLY, the Kd is not below 70100 nM.
On the same count and under the same terms, next, RQILDNAAK: 117 nM; KAIEKDRLDK: 12600 nM.
For the sequence VSVSDFRDY, the Kd was not below 78000 nM.
The same measure, in the same setting: next, VTLFYCDER: not below 43200 nM; KASMLEKYK: 4040 nM; MIKMFSQIDR: 2250 nM.
Same read-out and setting: next, TLITLILSNK: 1.61 nM; RALKAYFTAK: 12.4 nM.
Still for that read-out and setting: next, VISKIYTLIY: 101 nM.
On to DSMDVLAEK, for which the Kd is 404 nM.
For VALSSLVSK, the Kd worked out at 283 nM.
Same read-out and setting: next, DIEIGNFYIR: 845 nM; SSLRREHIK: 1070 nM; ETSPGEIKPK: not below 35000 nM.
As for NAISSRVDR, the Kd is not below 78000 nM.
The same measure, in the same setting: next, ESRPFDLIK: 8370 nM; DTSEKYSKGY: not below 70100 nM; ETFKIDAVRY: not below 70100 nM.
Take NVHEHINDQK: the Kd stood at 4050 nM.
On to STGESSILR, for which the Kd stood at 310 nM.
Regarding QFNFNGHTY, the dissociation constant (Kd) was determined as 5300 nM.
As to EQLSKYVEK, the Kd is 149 nM.
Same read-out and setting: next, CAVHLIIYY: 10100 nM; VALYRRIQR: 16100 nM.
As to RLGLVLDDYK, the Kd stood at 48.9 nM.
On the same count and under the same terms, next, ELRRAAIDR: not below 78000 nM.
For the sequence KSKQDRSDGY, the Kd was not below 35300 nM.
Still for that read-out and setting: next, HINTLIQYR: 191 nM.

The target of a further test is HLA-A*68:01. The test is described as above. As to conditions: source organism: Dengue virus 2 Peru/IQT2913/1996.
Turning to TTFITPMLR, the dissociation constant (Kd) is 6.76 nM.

Still in this test, the particulars now being: source organism: Mammarenavirus guanaritoense.
For the sequence CCNWLDRCR, the Kd is not below 77600 nM.

Staying with this test, now noted: source organism: Mammarenavirus lassaense.
For TCQGSDDIK, the dissociation constant Kd was determined as 7390 nM.
The same measure, in the same setting: next, SHLGPQFCK: 6220 nM.

The test is the same for the next values; noted with them: source organism: Mammarenavirus mopeiaense.
Consider KCFGNTAIAK, for which the Kd is 7870 nM.

Still in this test, the particulars now being: source organism: Mammarenavirus tacaribeense.
Turning to VCPLGLLLK, the Kd was not below 77600 nM.

The test is the same for the next values; noted with them: source organism: SARS coronavirus Tor2.
On to PVNQFTGYLK, for which the equilibrium dissociation constant (Kd) was 2260 nM.
Same read-out and setting: next, NLLDSYFVVK: 2350 nM; SLTVLFDGR: 1340 nM.
The same measure, in the same setting: next, GVVREFLTR: 186 nM; SFIEDLLFNK: 725 nM; SVFYLYLTFY: 99.4 nM.
Still for that read-out and setting: next, FLLNKEMYLK: 986 nM; QTVKPGNFNK: 418 nM; RFQPFQQFGR: 540 nM.
Regarding TFFSTFKCY, the dissociation constant (Kd) is 1070 nM.
With FVFPLNSKVK, the Kd came to 8.76 nM.

The test is the same for the next values; noted with them: source organism: Vaccinia virus WR.
QFIKPVSDLY: the Kd amounted to 1270 nM.
For RQILDNAAK, the Kd was not below 35300 nM.
Same read-out and setting: next, KAIEKDRLDK: 4730 nM.
On the same count and under the same terms, next, VSVSDFRDY: not below 77700 nM; VTLFYCDER: 121 nM.
KASMLEKYK: the dissociation constant (Kd) is 2850 nM.
Regarding MIKMFSQIDR, the Kd was determined as 1.6 nM.
Consider TLITLILSNK, for which the Kd worked out at 3.73 nM.
On the same count and under the same terms, next, RALKAYFTAK: 1950 nM; VISKIYTLIY: 1790 nM; DSMDVLAEK: 0.122 nM.
The same measure, in the same setting: next, VALSSLVSK: 1070 nM; DIEIGNFYIR: 49 nM; SSLRREHIK: 14000 nM.
In the case of ETSPGEIKPK, the Kd was 47.5 nM.
Turning to NAISSRVDR, the dissociation constant Kd was found to be 14.9 nM.
For ESRPFDLIK, the Kd came to 22.1 nM.
On the same count and under the same terms, next, DTSEKYSKGY: 533 nM; ETFKIDAVRY: 46.9 nM.
Still for that read-out and setting: next, NVHEHINDQK: 4.38 nM; STGESSILR: 196 nM.
Take QFNFNGHTY: the Kd is 175 nM.
The same measure, in the same setting: next, EQLSKYVEK: 161 nM.
Turning to CAVHLIIYY, the Kd came to 24.5 nM.
For VALYRRIQR, the Kd turned out to be 256 nM.
In the case of RLGLVLDDYK, the dissociation constant Kd is 506 nM.
Same read-out and setting: next, ELRRAAIDR: 83.2 nM.
Same read-out and setting: next, KSKQDRSDGY: not below 70200 nM.
On to HINTLIQYR, for which the equilibrium dissociation constant (Kd) was 14.8 nM.

Broadly, the Kd is the concentration at which binding is half-saturated.
